This note sets out measurements from US20180355046A1 (Boehringer Ingelheim, published 2018).

The target in the test is human TrkB receptor on cells (human, UniProt Q16620 32-822). The test can be described thus: cell-based or functional assay.
Chain of human TrkB receptor on cells (Q16620 32-822): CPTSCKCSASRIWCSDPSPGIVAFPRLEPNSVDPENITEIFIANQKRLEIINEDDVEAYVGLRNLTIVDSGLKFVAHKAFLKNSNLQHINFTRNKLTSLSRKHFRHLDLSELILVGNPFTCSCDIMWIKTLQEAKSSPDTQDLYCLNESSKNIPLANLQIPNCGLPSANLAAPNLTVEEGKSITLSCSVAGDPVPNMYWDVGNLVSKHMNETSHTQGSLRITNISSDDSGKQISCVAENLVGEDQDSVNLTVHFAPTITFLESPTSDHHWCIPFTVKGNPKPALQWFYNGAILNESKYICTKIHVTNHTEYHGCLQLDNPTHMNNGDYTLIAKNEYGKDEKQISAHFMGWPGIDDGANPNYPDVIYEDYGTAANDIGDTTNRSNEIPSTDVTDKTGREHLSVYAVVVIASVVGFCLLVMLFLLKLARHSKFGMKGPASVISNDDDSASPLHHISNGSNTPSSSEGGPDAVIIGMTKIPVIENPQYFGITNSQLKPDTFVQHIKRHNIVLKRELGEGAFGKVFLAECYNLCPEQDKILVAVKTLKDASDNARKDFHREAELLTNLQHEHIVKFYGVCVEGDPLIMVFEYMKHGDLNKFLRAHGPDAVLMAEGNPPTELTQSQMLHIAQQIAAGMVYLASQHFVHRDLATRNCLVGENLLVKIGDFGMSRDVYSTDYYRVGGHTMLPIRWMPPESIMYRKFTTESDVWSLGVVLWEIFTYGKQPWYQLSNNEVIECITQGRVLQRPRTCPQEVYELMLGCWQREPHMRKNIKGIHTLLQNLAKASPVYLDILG

B1: brain-derived neurotrophic factor (BDNF) (ligand, UniProt P23560 129-247, looked up)
chain: HSDPARRGELSVCDSISEWVTAADKKTAVDMSGGTVTVLEKVPVSKGQLKQYFYETKCNPMGYTKEGCRGIDKRHWNSQCRTTQSYVRALTMDSKKRIGWRFIRIDTSCVCTLTIKRGR
Regarding B1, the “AKT 1/2/3-P (T308), differentiated SH-SY5Y cells, EC50” value was determined as 0.255 nM and the “TrkB-P (TrkB phosphorylation, AlphaLISA, differentiated SH-SY5Y cells), EC50” value is 0.43 nM.
